# Test results published in PMC12102759 (2025).
# B1: PEX5 peptide 110-125 (Peroxisomal targeting signal 1 receptor), 16-mer library wild type / PEX14 Pex14 (PEX14 PEX14, residues 16-84) (parent complex)
# chain 1: ADLALSENWAQEFLAA
# chain 2: TPGSENVLPREPLIATAVKFLQNSRVRQSPLATRRAFLKKKGLTDEEIDMAFQQSGTAADEPSSLGPAT
# Variants of: B1
# Assay: proteomic peptide phage display deep mutational scan (ProP-PD DMS): M13 P8 16-mer library selected against immobilised GST-tagged bait for four days (rounds), NGS of the eluted pools per day and pseudo-replica; bait immobilised on MaxiSorp plates (10 µg), library pre-cleared on GST, 2 h binding at 4 °C, five washes; one round per day, days 1-4; value from days 2 and 3
row,Variant,screen value
1,chain 1 ADLALSENWAQEFLHA [chain 1 A15H],"0.000537 average fractional NGS count over selection days 2 and 3 (reads of this peptide / all reads for the bait, averaged over …"
2,chain 1 ADLALSENWAQEFLVA [chain 1 A15V],"0.000924 average fractional NGS count over selection days 2 and 3 (reads of this peptide / all reads for the bait, averaged over …"
3,chain 1 ADLALSENWAQEFLWA [chain 1 A15W],"0.00189 average fractional NGS count over selection days 2 and 3 (reads of this peptide / all reads for the bait, averaged over …"
4,chain 1 ADLALSENWAQEFLFA [chain 1 A15F],"0.000391 average fractional NGS count over selection days 2 and 3 (reads of this peptide / all reads for the bait, averaged over …"
5,chain 1 ADLALSENWAQEFLLA [chain 1 A15L],"0.00105 average fractional NGS count over selection days 2 and 3 (reads of this peptide / all reads for the bait, averaged over …"
6,chain 1 ADLALSENWAQEFLMA [chain 1 A15M],"0.000398 average fractional NGS count over selection days 2 and 3 (reads of this peptide / all reads for the bait, averaged over …"
7,chain 1 ADLALSENWAQEFLPA [chain 1 A15P],"0.00041 average fractional NGS count over selection days 2 and 3 (reads of this peptide / all reads for the bait, averaged over …"
8,chain 1 ADLALSEFWAQEFLAA [chain 1 N8F],"0.00191 average fractional NGS count over selection days 2 and 3 (reads of this peptide / all reads for the bait, averaged over …"
9,chain 1 ADLALSEEWAQEFLAA [chain 1 N8E],"0.00099 average fractional NGS count over selection days 2 and 3 (reads of this peptide / all reads for the bait, averaged over …"
10,chain 1 ADLALSEHWAQEFLAA [chain 1 N8H],"0.00161 average fractional NGS count over selection days 2 and 3 (reads of this peptide / all reads for the bait, averaged over …"
11,chain 1 ADLALSEWWAQEFLAA [chain 1 N8W],"0.00165 average fractional NGS count over selection days 2 and 3 (reads of this peptide / all reads for the bait, averaged over …"
12,chain 1 ADLALSEIWAQEFLAA [chain 1 N8I],"0.0016 average fractional NGS count over selection days 2 and 3 (reads of this peptide / all reads for the bait, averaged over …"
13,chain 1 ADLALSELWAQEFLAA [chain 1 N8L],"0.000366 average fractional NGS count over selection days 2 and 3 (reads of this peptide / all reads for the bait, averaged over …"
14,chain 1 ADLALSESWAQEFLAA [chain 1 N8S],"0.00269 average fractional NGS count over selection days 2 and 3 (reads of this peptide / all reads for the bait, averaged over …"
15,chain 1 ADLALSEPWAQEFLAA [chain 1 N8P],"0.000567 average fractional NGS count over selection days 2 and 3 (reads of this peptide / all reads for the bait, averaged over …"
16,chain 1 ADLALSEGWAQEFLAA [chain 1 N8G],"0.00135 average fractional NGS count over selection days 2 and 3 (reads of this peptide / all reads for the bait, averaged over …"
17,chain 1 ADLALSEDWAQEFLAA [chain 1 N8D],"0.00107 average fractional NGS count over selection days 2 and 3 (reads of this peptide / all reads for the bait, averaged over …"
18,chain 1 ADLALSENWAQWFLAA [chain 1 E12W],"0.0033 average fractional NGS count over selection days 2 and 3 (reads of this peptide / all reads for the bait, averaged over …"
19,chain 1 ADLALSENWAQPFLAA [chain 1 E12P],"0.000686 average fractional NGS count over selection days 2 and 3 (reads of this peptide / all reads for the bait, averaged over …"

row,Variant,screen value
1,chain 1 ADLALSENWAQIFLAA [chain 1 E12I],"0.00181 average fractional NGS count over selection days 2 and 3 (reads of this peptide / all reads for the bait, averaged over …"
2,chain 1 ADLALSENWAQVFLAA [chain 1 E12V],"0.00245 average fractional NGS count over selection days 2 and 3 (reads of this peptide / all reads for the bait, averaged over …"
3,chain 1 ADLALSENWAQMFLAA [chain 1 E12M],"0.000654 average fractional NGS count over selection days 2 and 3 (reads of this peptide / all reads for the bait, averaged over …"
4,chain 1 ADLALSENWAQSFLAA [chain 1 E12S],"0.00196 average fractional NGS count over selection days 2 and 3 (reads of this peptide / all reads for the bait, averaged over …"
5,chain 1 ADLALSENWAQHFLAA [chain 1 E12H],"0.00205 average fractional NGS count over selection days 2 and 3 (reads of this peptide / all reads for the bait, averaged over …"
6,chain 1 GDLALSENWAQEFLAA [chain 1 A1G],"0.000525 average fractional NGS count over selection days 2 and 3 (reads of this peptide / all reads for the bait, averaged over …"
7,chain 1 EDLALSENWAQEFLAA [chain 1 A1E],"0.00113 average fractional NGS count over selection days 2 and 3 (reads of this peptide / all reads for the bait, averaged over …"
8,chain 1 NDLALSENWAQEFLAA [chain 1 A1N],"0.00108 average fractional NGS count over selection days 2 and 3 (reads of this peptide / all reads for the bait, averaged over …"
9,chain 1 YDLALSENWAQEFLAA [chain 1 A1Y],"0.000485 average fractional NGS count over selection days 2 and 3 (reads of this peptide / all reads for the bait, averaged over …"
10,chain 1 PDLALSENWAQEFLAA [chain 1 A1P],"0.000566 average fractional NGS count over selection days 2 and 3 (reads of this peptide / all reads for the bait, averaged over …"
11,chain 1 FDLALSENWAQEFLAA [chain 1 A1F],"0.00127 average fractional NGS count over selection days 2 and 3 (reads of this peptide / all reads for the bait, averaged over …"
12,chain 1 TDLALSENWAQEFLAA [chain 1 A1T],"0.00109 average fractional NGS count over selection days 2 and 3 (reads of this peptide / all reads for the bait, averaged over …"
13,chain 1 ADLALSENWAQEFQAA [chain 1 L14Q],"0.000996 average fractional NGS count over selection days 2 and 3 (reads of this peptide / all reads for the bait, averaged over …"
14,chain 1 ADLALSENWAQEFDAA [chain 1 L14D],"0.000896 average fractional NGS count over selection days 2 and 3 (reads of this peptide / all reads for the bait, averaged over …"
15,chain 1 ADLALSENWAQEFFAA [chain 1 L14F],"0.00346 average fractional NGS count over selection days 2 and 3 (reads of this peptide / all reads for the bait, averaged over …"
16,chain 1 ADLALSENWAQEFSAA [chain 1 L14S],"0.00136 average fractional NGS count over selection days 2 and 3 (reads of this peptide / all reads for the bait, averaged over …"
17,chain 1 ADLALSENWAQEFTAA [chain 1 L14T],"0.00188 average fractional NGS count over selection days 2 and 3 (reads of this peptide / all reads for the bait, averaged over …"
18,chain 1 ADLALSENWAQEFRAA [chain 1 L14R],"0.000944 average fractional NGS count over selection days 2 and 3 (reads of this peptide / all reads for the bait, averaged over …"
19,chain 1 ADLALSENWAQEFKAA [chain 1 L14K],"0.000342 average fractional NGS count over selection days 2 and 3 (reads of this peptide / all reads for the bait, averaged over …"

row,Variant,screen value
1,chain 1 ADLALSENWAQEYLAA [chain 1 F13Y],"0.00124 average fractional NGS count over selection days 2 and 3 (reads of this peptide / all reads for the bait, averaged over …"
2,chain 1 ADLALSENWAQEWLAA [chain 1 F13W],"0.000735 average fractional NGS count over selection days 2 and 3 (reads of this peptide / all reads for the bait, averaged over …"
3,chain 1 ADLALSENWAQEHLAA [chain 1 F13H],"0.00342 average fractional NGS count over selection days 2 and 3 (reads of this peptide / all reads for the bait, averaged over …"
4,chain 1 ADLALSENWAQERLAA [chain 1 F13R],"0.000386 average fractional NGS count over selection days 2 and 3 (reads of this peptide / all reads for the bait, averaged over …"
5,chain 1 ADLALSENWAQEILAA [chain 1 F13I],"0.000603 average fractional NGS count over selection days 2 and 3 (reads of this peptide / all reads for the bait, averaged over …"
6,chain 1 ADLALSGNWAQEFLAA [chain 1 E7G],"0.00129 average fractional NGS count over selection days 2 and 3 (reads of this peptide / all reads for the bait, averaged over …"
7,chain 1 ADLALSFNWAQEFLAA [chain 1 E7F],"0.000467 average fractional NGS count over selection days 2 and 3 (reads of this peptide / all reads for the bait, averaged over …"
8,chain 1 ADLALSDNWAQEFLAA [chain 1 E7D],"0.00312 average fractional NGS count over selection days 2 and 3 (reads of this peptide / all reads for the bait, averaged over …"
9,chain 1 ADLALSTNWAQEFLAA [chain 1 E7T],"0.00188 average fractional NGS count over selection days 2 and 3 (reads of this peptide / all reads for the bait, averaged over …"
10,chain 1 ADLALSNNWAQEFLAA [chain 1 E7N],"0.00129 average fractional NGS count over selection days 2 and 3 (reads of this peptide / all reads for the bait, averaged over …"
11,chain 1 ADLALSMNWAQEFLAA [chain 1 E7M],"0.0015 average fractional NGS count over selection days 2 and 3 (reads of this peptide / all reads for the bait, averaged over …"
12,chain 1 ADLALSSNWAQEFLAA [chain 1 E7S],"0.00412 average fractional NGS count over selection days 2 and 3 (reads of this peptide / all reads for the bait, averaged over …"
13,chain 1 ADLALSYNWAQEFLAA [chain 1 E7Y],"0.00176 average fractional NGS count over selection days 2 and 3 (reads of this peptide / all reads for the bait, averaged over …"
14,chain 1 ADLALSLNWAQEFLAA [chain 1 E7L],"0.00102 average fractional NGS count over selection days 2 and 3 (reads of this peptide / all reads for the bait, averaged over …"
15,chain 1 ADLALSRNWAQEFLAA [chain 1 E7R],"0.00247 average fractional NGS count over selection days 2 and 3 (reads of this peptide / all reads for the bait, averaged over …"
16,chain 1 ADLALSWNWAQEFLAA [chain 1 E7W],"0.0042 average fractional NGS count over selection days 2 and 3 (reads of this peptide / all reads for the bait, averaged over …"
17,chain 1 ADLALSPNWAQEFLAA [chain 1 E7P],"0.00244 average fractional NGS count over selection days 2 and 3 (reads of this peptide / all reads for the bait, averaged over …"
18,chain 1 ADLALSVNWAQEFLAA [chain 1 E7V],"0.000676 average fractional NGS count over selection days 2 and 3 (reads of this peptide / all reads for the bait, averaged over …"
